For data set [1], the target named is T1, human Nectin-4 expressed on cells (human, UniProt Q96NY8 32-510).
T1 sequence: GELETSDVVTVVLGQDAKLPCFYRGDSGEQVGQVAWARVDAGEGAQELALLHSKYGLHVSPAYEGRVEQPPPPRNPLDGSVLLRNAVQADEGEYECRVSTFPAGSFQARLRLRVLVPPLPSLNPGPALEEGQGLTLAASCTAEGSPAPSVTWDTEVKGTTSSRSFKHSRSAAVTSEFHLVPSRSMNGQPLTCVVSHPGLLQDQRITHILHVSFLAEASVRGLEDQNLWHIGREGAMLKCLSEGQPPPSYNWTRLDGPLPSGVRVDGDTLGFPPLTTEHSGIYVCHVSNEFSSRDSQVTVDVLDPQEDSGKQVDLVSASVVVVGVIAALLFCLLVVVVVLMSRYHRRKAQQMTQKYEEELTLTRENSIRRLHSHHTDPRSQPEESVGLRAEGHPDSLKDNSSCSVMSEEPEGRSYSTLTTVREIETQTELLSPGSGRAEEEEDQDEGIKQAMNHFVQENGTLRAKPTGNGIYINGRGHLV
Briefly: flow cytometry on SUM190 cells, antibody at 10 ug/ml.

In data set [2] the target is T1, human Nectin-4 expressed on cells. As to the kind of experiment: flow cytometry on SUM185 cells, antibody at 10 ug/ml.
Another data set deals with SUM185 cells. As to the kind of experiment: Comparative in vitro killing of SUM185 cells (model of anti-HER2 resistance), CTG. In kind it is cell-based, human. Conditions: 5 days, 5E7 ADC DAR=8, PADCEV DAR=4, FIG. 5. Here is the method: This setting was used as a model of anti-HER2 resistance. SUM185 cells express Nectin-4 at relatively high levels, with Nectin-4 expression levels about twice that of HER2 in these cells (see Example 1). In this experiment, the 5E7 antibody was tested as an ADC having DAR=8 along with PADCEV™ (DAR=4, specification for FDA-approved PADCEV™) and control antibodies all conjugated with the same toxin at equivalent drug to antibody ratios. 5E7 was conjugated with a camptothecin analogue Dxd via the ggfg-Dxd linker.
Briefly, dose-ranges of each tested Ab (starting point 150 nM, dilution factor 2 for 3 points, then 5 for 5 points) were incubated on cells for 5 days before cell viability measurement by addition of CTG substrate. Luminescence vs. Ab concentration was plotted on graph.
For each ADC, a concentration range of ADC was incubated with nectin-4-expressing cells. After incubation, CTG substrate was added at 1:1 ratio and the luminescent signal was read with a plate reader (Enspire), allowing quantification of the ATP present (indicator of metabolically active cells) which was proportional to cell viability.

The next data set has as its system UC (patients). Conditions: EV-201 Phase 2 study; cited from earlier work.
Data set [3] has as its system MC-38 cells endogenously expressing MDR1 P-glycoprotein (Pgp), engineered to express Nectin-4. As to the kind of experiment: In vitro efficacy of ADCs in Pgp-expressing cancer model (CTG). The format is cell-based, murine. Conditions: for anti-tumor activity in presence or absence of the Pgp inhibitor cyclosporine: 150 nM ADC, normalized to control antibody, cyclosporin A 5 μM, FIG. 10B. Here is the method: MC-38 cells that endogenously express MDR1 P-glycoprotein (Pgp) were engineered to express Nectin-4 and cultured in DMEM+10% FBS. Cells were either treated with vehicle (DSMO) or with cyclosporin A (5 μM, stock solution in DMSO) known to act as an inhibitor of Pgp, in presence of ADCs.
The ADCs and the equivalent isotype control ADCs were used at dose range from 150 to 2.3 10^−3 nM. After five days of co-incubation with cells, cell viability was measured by addition of Cell Titer Glo™ (CTG) substrate. Luminescence vs. Ab concentration was plotted.

Data set [4] deals with T1, human Nectin-4 expressed on cells. Briefly: flow cytometry (FL2-A) on SUM185 human breast cancer cells; unstained cells 71.5.
The target in data set [5] is HER2 on human breast cancer tumor cells (human) (UniProt P04626). The data set is described as above.
Data set [6] has as its system SUM190 cells subcutaneously engrafted in CB17-SCID mice. Briefly: In vivo efficacy of Dxd and exatecan ADCs in SUM190 model. The arrangement: species or system mouse. Conditions: single i.v. injection 10 mg/kg; FIG. 9C. How it is done:
Human breast cancer cell line SUM190PT was cultured in the following cell culture medium containing Ham's F12, FBS 1 g/L, HEPES 10 mM, Ethanolamine 5 mM, Insulin 5 μg/mL, Hydrocortisone 1 μg/mL, Apo-Transferrin 5 μg/mL, Triiodo Thyronine (T3) 6.7 ng/ml, Sodium selenite 8.7 ng/ml.
Immunodeficient CB17-SCID mice were used at 7 to 8 weeks of age. […] The ggfg-Dxd linker will release Dxd (deruxtecan) upon cleavage and the PEG (8U)-Val-Ala-PAB-Exatecan linker will release exatecan upon cleavage.
SUM190 cells were subcutaneously engrafted in CB17-SCID immunodeficient mice at the dose of 0.5 million in 100 μl of Matrigel containing growth factor diluted at ½ in PBS. At day 21, when tumors reached a mean volume at 146.9±63.2 mm^3 or 213.2±77.5 mm^3 depending on the experiment, mice were randomized into groups of 8 or 9 mice depending on the experiment and treated intravenously with a single injection of 3 or 10 mg/kg body weight ADC or PBS as control. Tumor growths were followed twice a week. Kaplan Meier survival curves were established by using GraphPad Prism V7 software according to the following criteria: when the tumor volume reached 1500 mm^3, mice were euthanized and considered dead on the day of sacrifice (D). When tumors were highly necrotic, mice were euthanized and considered dead on the same day (D).

Data set [7] addresses T2, cynomolgus Nectin-4 protein expressed on CHO cells (cynomolgus, UniProt Q96NY8 32-510 (human entry)).
T2 construct: also called Cyno Nectin-4 V5
T2 chain: T1 sequence with V39A, I230V, A437T
As to the kind of experiment: flow cytometry on CHO cells expressing cynomolgus Nectin-4, Median MFI (PE). Here is the method:
(§1) Anti-Nectin-4 antibodies were tested by flow cytometry for binding to different CHO cell lines made to express respectively the mouse, cynomolgus and rat Nectin-4 protein (including an N-terminal V5 tag not shown in the sequences below).

Data set [8] concerns the target T3, rat Nectin-4 protein expressed on CHO cells (rat, UniProt Q8R007 31-508 (mouse entry)).
T3 construct: no cleavage site is stated; also called Rat Nectin-4 V5
T3 chain: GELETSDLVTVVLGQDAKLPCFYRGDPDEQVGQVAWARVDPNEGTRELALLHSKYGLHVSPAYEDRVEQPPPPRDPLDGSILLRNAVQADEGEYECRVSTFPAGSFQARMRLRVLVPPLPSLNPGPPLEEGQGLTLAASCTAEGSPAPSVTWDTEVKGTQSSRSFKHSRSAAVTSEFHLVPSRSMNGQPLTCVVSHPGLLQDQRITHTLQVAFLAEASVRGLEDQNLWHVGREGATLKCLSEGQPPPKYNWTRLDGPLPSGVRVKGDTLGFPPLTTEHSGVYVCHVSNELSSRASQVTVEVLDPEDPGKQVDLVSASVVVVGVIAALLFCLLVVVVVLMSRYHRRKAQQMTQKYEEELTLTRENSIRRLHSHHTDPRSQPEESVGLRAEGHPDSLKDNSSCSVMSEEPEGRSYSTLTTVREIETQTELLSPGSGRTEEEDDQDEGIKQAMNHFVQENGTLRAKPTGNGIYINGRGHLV
As to the kind of experiment: flow cytometry on CHO cells expressing rat Nectin-4, Median MFI (PE). How it is done:
as §1

Numbering of substitutions follows the chain as printed.

On to “anti-Nectin-4 antibody (ASG-22ME modified as a human IgG1 isotype containing a N297Q mutation)”, for which the MFI in data set [1] was 991 MFI; in data set [2], 4330 MFI.
For the molecule PADCEV™, the “killing of SUM185 cells / reduction of cell viability” value with SUM185 cells is given as “able to kill the SUM185 more efficiently than ENHERTU™”. Further, in the data set on UC (patients), the “CR (complete response rate)” value is on record as 12%, the “ORR (objective response rate)” value is listed as 44%, the “discontinuation due to clinical symptoms” value was 5% and the “discontinuation due to progressive disease as assessed by RECIST” value was 48%. Moreover, in the data set with UC (patients), the “patients that discontinued experienced adverse events, notably neuropathy” value is 18%. Also, the “anti-tumor activity in presence or absence of the Pgp inhibitor cyclosporine” value in data set [3] was “negatively affected by Pgp”.
With Control Antibody, the Median of fluo. in data set [4] and in data set [5] was 94.5 throughout.

B1: 5E7-exatecan: 5E7 conjugated to the exatecan linker PEG (8U)-Val-Ala-PAB-Exatecan (drawing 79), DAR=8 (conjugate)
VH: QVQLQQPGAELVKPGASVKLSCKASGYIFTSYWMHWVKQRPGQGLEWIGEIDPSDSYTNYNQKFKGKATLTLDKSSSTTYMQLSSLTSEDSAVYYCVRGYGNYGDYWGQGTTLTVSSASTKGP
VL: DVVMTQAAFSNPVTLGTSASISCRSSKSLLHSNGITYLYWYLQKPGQSPQLLIYQMSNLASGVPDRFSSSGSGTDFTLRISRVEAEDVGVYYCAQNLELPWTFGGGTKLEIKRTVAAP
As for B1, in data set [6], the “efficiency in controlling tumor growth in mice” value is “higher efficiency in controlling tumor growth in mice compared 5E7 conjugated with ggfg-Dxd”. In [3], the “anti-tumor activity in presence or absence of the Pgp inhibitor cyclosporine” value is recorded as “highly effective”. In data set [3] (MC-38 Pgp/Nectin-4 cells, 5 days, setting of drug resistance, FIG. 10A), the “decrease of cell viability (luminescence)” value is “highly potent to decrease cell viability”.

B2: enfortumab (antibody, V domains shown)
VH: EVQLVESGGGLVQPGGSLRLSCAASGFTFSSYNMNWVRQAPGKGLEWVSYISSSSSTIYYADSVKGRFTISRDNAKNSLSLQMNSLRDEDTAVYYCARAYYYGMDVWGQGTTVTVSS
VL: DIQMTQSPSSVSASVGDRVTITCRASQGISGWLAWYQQKPGKAPKFLIYAASTLQSGVPSRFSGSGSGTDFTLTISSLQPEDFATYYCQQANSFPPTFGGGTKVEIKR
With B2, the 50% effective concentration (EC50 (read off the curve)) is approximately 0.08 µg/mL in data set [7] and approximately 0.2 µg/mL in data set [8].

The values above are taken from patent publication US20250297004A1, “NECTIN-4 BINDING AGENTS” (INNATE PHARMA, priority 2022, published 2025).
